Experimental data from publication doi:10.1101/2024.04.17.589974 (bioRxiv, 2024).
Changes are numbered by the printed parent chain.

Experiments:
[1] = biological target: T1, Y685F-VE-cadherin (knock-in mutant, mouse) (mouse (endogenous in lung of C57BL/6 …, UniProt P55284 46-784, Y685F)); assay: co-IP
T1 sequence (looked up): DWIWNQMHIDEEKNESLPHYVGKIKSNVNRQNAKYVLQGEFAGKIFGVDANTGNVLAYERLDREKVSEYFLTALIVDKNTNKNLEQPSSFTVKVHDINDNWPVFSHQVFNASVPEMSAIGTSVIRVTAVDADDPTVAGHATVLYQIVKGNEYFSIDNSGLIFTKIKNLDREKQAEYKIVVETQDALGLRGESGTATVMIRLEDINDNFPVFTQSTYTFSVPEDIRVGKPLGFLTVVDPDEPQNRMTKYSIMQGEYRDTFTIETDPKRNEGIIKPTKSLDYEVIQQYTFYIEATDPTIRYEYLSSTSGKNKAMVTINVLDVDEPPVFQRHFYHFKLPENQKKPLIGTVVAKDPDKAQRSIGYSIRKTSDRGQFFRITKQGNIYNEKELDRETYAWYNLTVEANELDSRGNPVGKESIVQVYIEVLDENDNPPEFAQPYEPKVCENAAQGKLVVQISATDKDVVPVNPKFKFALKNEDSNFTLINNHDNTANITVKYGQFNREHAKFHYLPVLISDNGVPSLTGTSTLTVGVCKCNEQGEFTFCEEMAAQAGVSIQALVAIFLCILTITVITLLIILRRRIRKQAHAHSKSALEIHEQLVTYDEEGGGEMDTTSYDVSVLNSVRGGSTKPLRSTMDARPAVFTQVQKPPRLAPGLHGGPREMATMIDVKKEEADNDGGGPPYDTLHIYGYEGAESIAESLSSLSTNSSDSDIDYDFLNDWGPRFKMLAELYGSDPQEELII

[2] = biological target: T2, VE-cadherin (wild type, mouse) (mouse (endogenous in lung of C57BL/6 …, UniProt P55284 46-784)); assay: co-IP
T2 sequence (looked up): T1 sequence (looked up) with F640Y

B1: β-catenin (natural protein, UniProt Q02248 1-781, looked up)
chain: MATQADLMELDMAMEPDRKAAVSHWQQQSYLDSGIHSGATTTAPSLSGKGNPEEEDVDTSQVLYEWEQGFSQSFTQEQVADIDGQYAMTRAQRVRAAMFPETLDEGMQIPSTQFDAAHPTNVQRLAEPSQMLKHAVVNLINYQDDAELATRAIPELTKLLNDEDQVVVNKAAVMVHQLSKKEASRHAIMRSPQMVSAIVRTMQNTNDVETARCTAGTLHNLSHHREGLLAIFKSGGIPALVKMLGSPVDSVLFYAITTLHNLLLHQEGAKMAVRLAGGLQKMVALLNKTNVKFLAITTDCLQILAYGNQESKLIILASGGPQALVNIMRTYTYEKLLWTTSRVLKVLSVCSSNKPAIVEAGGMQALGLHLTDPSQRLVQNCLWTLRNLSDAATKQEGMEGLLGTLVQLLGSDDINVVTCAAGILSNLTCNNYKNKMMVCQVGGIEALVRTVLRAGDREDITEPAICALRHLTSRHQEAEMAQNAVRLHYGLPVVVKLLHPPSHWPLIKATVGLIRNLALCPANHAPLREQGAIPRLVQLLVRAHQDTQRRTSMGGTQQQFVEGVRMEEIVEGCTGALHILARDVHNRIVIRGLNTIPLFVQLLYSPIENIQRVAAGVLCELAQDKEAAEAIEAEGATAPLTELLHSRNEGVATYAAAVLFRMSEDKPQDYKKRLSVELTSSLFRTEPMAWNETADLGLDIGAQGEALGYRQDDPSYRSFHSGGYGQDALGMDPMMEHEMGGHHPGADYPVDGLPDLGHAQDLMDGLPPGDSNQLAWFDTDL
[1]
  β-catenin/VE-cadherin ratio in the VE-cadherin immunoprecipitate (densitometry): 0.798
[2]
  β-catenin/VE-cadherin ratio in the VE-cadherin immunoprecipitate (densitometry): 1.14
